Data from patent US20060083685 (published 2006).
Square brackets hold non-standard residues; d marks the D form. Ends that are not written are not given here.

T1: delta opioid receptor (rat, UniProt P33533)
T1 chain: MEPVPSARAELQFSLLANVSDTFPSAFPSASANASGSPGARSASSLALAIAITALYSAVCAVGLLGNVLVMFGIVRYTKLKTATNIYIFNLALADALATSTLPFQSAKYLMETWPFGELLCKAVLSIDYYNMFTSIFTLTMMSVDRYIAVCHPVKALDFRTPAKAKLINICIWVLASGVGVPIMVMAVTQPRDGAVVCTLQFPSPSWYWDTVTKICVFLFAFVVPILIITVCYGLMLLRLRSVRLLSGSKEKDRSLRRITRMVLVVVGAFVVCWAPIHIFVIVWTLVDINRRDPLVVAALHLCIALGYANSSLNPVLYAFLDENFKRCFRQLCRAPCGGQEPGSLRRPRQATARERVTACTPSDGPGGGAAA

T2: mu opioid receptor (rat, UniProt P33535)
T2 chain: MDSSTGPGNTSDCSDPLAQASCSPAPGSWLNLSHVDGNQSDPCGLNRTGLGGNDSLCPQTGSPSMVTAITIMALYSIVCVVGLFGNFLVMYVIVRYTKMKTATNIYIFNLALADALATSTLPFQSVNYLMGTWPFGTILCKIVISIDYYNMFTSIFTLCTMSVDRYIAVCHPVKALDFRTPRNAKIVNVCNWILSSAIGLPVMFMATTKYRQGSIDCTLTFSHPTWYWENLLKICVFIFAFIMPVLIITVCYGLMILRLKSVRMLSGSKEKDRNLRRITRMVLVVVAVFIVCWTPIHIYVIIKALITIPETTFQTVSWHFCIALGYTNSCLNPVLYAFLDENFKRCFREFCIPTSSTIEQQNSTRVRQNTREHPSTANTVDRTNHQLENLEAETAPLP


What was measured:
delta opioid receptor = target: T1, delta opioid receptor; assay: competition, radioligand, 25C
mu opioid receptor = target: T2, mu opioid receptor; assay: competition, radioligand, 25C

binding result (delta opioid receptor) | binding result (mu opioid receptor) | Binder
no binding | no binding | YG[dF]C-NH2 (also: rhenium complex) [Tyr-Gly-D-Phe-Cys-NH2]
no binding | no binding | YC[dF]G-NH2 (also: rhenium complex) [Tyr-Cys-D-Phe-Gly-NH2]
